Non-standard residues stand in square brackets, D forms with d. No end group written: not given here. *: point of attachment. APBA‑IA = cysteine S-alkylated with APBA-IA: S-[2-oxo-2-({3-[4-acetyl-3-boronophenoxy]propyl}amino)ethyl]-L-cysteine (Cm), CC(=O)c1ccc(OCCCNC(=O)C*)cc1B(O)O; FAM = 5(6)-carboxyfluorescein, amide on Dap side-chain amine; Dap = NC[C@H](N)C(=O)O
Molecular target: T1, human serum albumin (human, UniProt P02768 25-609)
T1 construct: Reagent protein; also called HSA
Test: fluorescence anisotropy, 500 nM peptide with varied protein concentrations in PBS pH 7.4
Method: FIGS. 16A-16B show further evaluation of the protein-enhanced bacterial staining by KAM5. (A) Flow cytometry comparison of HSA and BSA in enhancing KAM5 binding to S. aureus. (B) Assessing protein binding of KAM5 using fluorescence anisotropy, for which various concentrations of BSA or HSA were delivered to a 96-well plate (Corning 3603) in PBS (pH 7.4). Peptide was added at a final concentration of 500 nM and incubated for 1 hour. Anisotropy values were measured (Ex: 495 nm, Em: 532 nm) and plotted as an average of three trials with standard deviations. Fluorescein was used as a negative control. The results clearly show binding of KAM5 to these serum proteins.
The cell staining ability of KAM5 was also evaluated via fluorescence microscopy with a TAMRA labeled peptide. […] On the contrary, the BSA addition elicited stronger fluorescence staining of the bacteria, consistent with the flow cytometry results (FIG. 2D). […] To better understand this phenomenon, KAM5 was measured binding to these serum proteins via a fluorescence anisotropy experiment (FIGS. 16A-16B). KAM5 did show binding to both BSA and HAS at high protein concentrations, which is perhaps not surprising given these proteins display a large number of surface lysine residues.

T1 sequence (P02768 25-609 limits assumed): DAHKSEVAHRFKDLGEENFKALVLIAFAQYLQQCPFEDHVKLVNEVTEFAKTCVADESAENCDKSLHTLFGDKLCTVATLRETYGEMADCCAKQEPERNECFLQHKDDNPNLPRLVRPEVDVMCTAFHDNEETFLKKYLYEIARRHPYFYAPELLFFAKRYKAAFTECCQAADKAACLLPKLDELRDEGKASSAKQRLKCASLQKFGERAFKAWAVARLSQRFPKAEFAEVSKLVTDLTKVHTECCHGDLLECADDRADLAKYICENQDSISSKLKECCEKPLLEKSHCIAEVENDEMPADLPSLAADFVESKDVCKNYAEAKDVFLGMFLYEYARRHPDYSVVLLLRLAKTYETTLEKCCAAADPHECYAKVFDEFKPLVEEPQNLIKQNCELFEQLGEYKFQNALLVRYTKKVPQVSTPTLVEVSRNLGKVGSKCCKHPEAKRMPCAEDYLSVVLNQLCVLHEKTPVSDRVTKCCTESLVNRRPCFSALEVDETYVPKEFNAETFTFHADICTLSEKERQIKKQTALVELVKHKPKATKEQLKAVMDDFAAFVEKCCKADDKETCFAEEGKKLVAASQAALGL

Binder: AC(APBA‑IA)VSPRSHEC(APBA‑IA)GGG[Dap](FAM)-NH2 [KAM5 (fluorescein/FAM labeled, APBA-IA modified): ACmVSPRSHECmGGGDap*]
- binding result: binds

Source: US20210198657A1 (TRUSTEES OF BOSTON COLLEGE, published 2021)
